In patent US8513188B2, “Formulations comprising cyclic compounds” (priority 2006, dated 2013):

Tests used:
[1] = dose 2: 2.6 mg desalted human insulin + 60 mg 18-crown-6 in about 310 ul mixture
Protocol: Dose 2: 2.6 mg of desalted human insulin with TFA counter-ions are mixed with 60 mg of 18-crown-6. To these solids, 250 μl of a mixture is added, the mixture being composed of 200 μl of a 50% mixture of Propylen glycole and 50% glycerol, 200 mg of mono-decanoyl-glycerol and 100 μl of Cremofor EL. The final volume is approximately 310 μl.

[2] = system: Caco-2 cells; conditions: insulin at same concentration in physiological buffer, without formulation agent and organic vehicle
Protocol: Should insulin pass through the Caco-2 cell lines, it is found in the receiving chamber.
Insulin Concentration: 3 mg in 125 μl of olive oil/Peg, 92%/8%, v/v
Vehicle: olive oil/Peg (esaethylenglycol)
Positive control: Ibuprofen: 1 mg in 125 μl physiological buffer.
After vortex, 50 μl of the final mixture are added to the caco-2 cell well in double.
Active Sample Preparation (Insulin with Vehicle & Formulation Agent)
After MeOH evaporation, 115 μl of olive oil and 10 μl Peg are added. Vortex for 2-3 minutes. After vortex, 50 μl of the final mixture are added to the Caco-2 cell well in double.
Control (Insulin with Formulation Agent in Physiological Buffer; No Organic or Non-Aqueous Vehicle Present)
Vortex the mixture for 2-3 minutes. […] Then methanol is evaporated and 125 μl of physiological buffer are added; 50 μl of the above solution are added to the Caco-2 cell well in double.

[3] = system: Caco-2 cells; conditions: insulin incorporated into liposome according to Sigma preparation, no 18-crown-6
Protocol: Liposomes were purchased from Sigma-Aldrich (pre-liposome formulation 8; product No. L3531) and used according to the following procedure. Alternatively, same ingredients were purchased by other suppliers (Avanti), and liposomes were prepared according the procedure indicated by Sigma. Insulin passage was measured by HPLC injection of samples in the receiving chamber.
The organic mixture containing insulin was mixed with the lipid mixture of Sigma, then solvent was evaporated or lyophilized. Water addition generated liposomes that were tested for delivery in Caco-2 cells.

[4] = system: mice; experiment: In vivo insulin delivery in mice by sub-lingual administration, blood glucose decrease; conditions: dose 1, sublingual
Protocol: Dose 1: 0.5 mg of desalted human insulin with TFA counter-ions (corresponds to 0.4 mg of non treated standard insulin) are mixed with 60 mg of 18-crown-6. […] The final volume is approximately 310 μl.
The final volume is approximately 310 μl.
Mice were treated with 6.5 μl of mixture 1 and 2, respectively. In dose 1, each mouse was treated with approximately 10 μg of desalted human insulin with TFA counter-ions (corresponds to 8 μg of non treated standard insulin). In dose 2, each mouse was treated with approximately 52 μg of desalted human insulin with TFA counter-ions (corresponds to 41.6 μg of non treated standard insulin).
Results: Insulin Delivery is Measured by Blood Glucose Decrease.

[5] = Dissolution of protein Rantes in organic medium (DCM/MeOH), HPLC of supernatant; type: physicochemical; conditions: for presence of protein in HPLC trace of supernatant: centrifuged
Protocol: Two samples of 0.2 mg each of the folded protein Rantes were taken. One sample was used as standard and dissolved in a fixed volume (300 ul) of water/acetonitrile 50% v/v and 30 ul where injected onto HPLC (FIG. 6, HPLC section A) .
The second sample was suspended in a mixture of DCM/MeOH 70%30% VN, (300 ul). The suspension with solid particles was centrifuged and the surnatant injected onto HPLC volume (30 ul).
Then, 2.0 mg of Nonactine were added and the mixture was vortexed. […] Then, the mixture was centrifuged and 30 ul of the supernatant were injected onto HPLC. […] In the HPLC section C the protein has a different retention time (early elution) from the standard in section A. This phenomenon could be explained by the high percentage of organic solvents (like CH2Cl2 depicted in the figure) that carried through the protein complex with nonactine causing early elution.

Compound: Insulin: human insulin, previously desalted; with TFA counter-ions in Example 8
- solubility of insulin in the dose mixture [1]: precipitation of insulin occurred
- insulin passage across Caco-2 cells [2]: does not cross caco-2 cells
- insulin passage through Caco-2 cells [3]: did not result measurable insulin passage
- effect on blood glucose (insulin delivery) ([4]; about 10 ug desalted human insulin with 18-crown-6, compared with IP injection): close to the effects of IP injection
- actual delivery ([4]; dose about 7 times the injected control dose): around 10%

Compound: Rantes: folded protein Rantes, a chemokine
- presence of protein in HPLC trace of supernatant ([5]; 0.2 mg Rantes suspended in 300 ul DCM/MeOH 70%/30%, no Nonactine): no presence of the protein in the chromatogram

Compound: C[C@@H]1C[C@H]2CC[C@H](O2)[C@H](C)C(=O)O[C@@H](C)C[C@@H]2CC[C@@H](O2)[C@@H](C)C(=O)O[C@H](C)C[C@H]2CC[C@@H](O2)[C@H](C)C(=O)O[C@@H](C)C[C@@H]2CC[C@@H](O2)[C@@H](C)C(=O)O1 [Nonactine]
- presence of protein in HPLC trace of supernatant ([5]; 0.2 mg Rantes in 300 ul DCM/MeOH 70%/30% + 2.0 mg Nonactine, versus water/acetonitrile standard): presence of the peptide in similar proportion as per the area of the standard
- appearance of the mixture after addition of Nonactine ([5]; 0.2 mg Rantes in 300 ul DCM/MeOH 70%/30% + 2.0 mg Nonactine, vortexed): clear solution
